Experimental data as given in patent US11135246B2, “Peptides and combination of peptides for use in immunotherapy against leukemias and other cancers” (Immatics Biotechnologies GmbH, priority 2017, dated 2021).

molecular target: HLA-B*44:02 (Homo sapiens, UniProt P01889, A223V/A65T/A93T/A95T/D201E/D98Y/E176V/E187L/E204Q/E69K/G107R/H137Y/K202T/L105A/L119I/N104T/N87E/Q56L/Q94N/R106L/R155S/R180D/S101N/S121R/S35A/S48T/T118I/V36M/W191S/Y140D/Y91S); experiment: MHC binding assay, UV-ligand exchange with β2m ELISA, HLA-B*44:02; settings: binding to HLA-B*44:02, UV-ligand exchange
Description: Candidate peptides for T cell based therapies according to the present invention were further tested for their MHC binding capacity (affinity). The individual peptide-MHC complexes were produced by UV-ligand exchange, where a UV-sensitive peptide is cleaved upon UV-irradiation, and exchanged with the peptide of interest as analyzed. Only peptide candidates that can effectively bind and stabilize the peptide-receptive MHC molecules prevent dissociation of the MHC complexes. To determine the yield of the exchange reaction, an ELISA was performed based on the detection of the light chain (β2m) of stabilized MHC complexes. The assay was performed as generally described in Rodenko et al. (Rodenko et al., 2006).
96 well MAXISorp plates (NUNC) were coated over night with 2 ug/ml streptavidin in PBS at room temperature, washed 4× and blocked for 1 h at 37° C. in 2% BSA containing blocking buffer. Refolded HLA-A*02:01/MLA-001 monomers served as standards, covering the range of 15-500 ng/ml. Peptide-MHC monomers of the UV-exchange reaction were diluted 100-fold in blocking buffer. Samples were incubated for 1 h at 37° C., washed four times, incubated with 2 ug/ml HRP conjugated anti-β2m for 1 h at 37° C., washed again and detected with TMB solution that is stopped with […]. Absorption was measured at 450 nm. Candidate peptides that show a high exchange yield (preferably higher than 50%, most preferred higher than 75%) are generally preferred for a generation and production of antibodies or fragments thereof, and/or T cell receptors or fragments thereof, as they show sufficient avidity to the MHC molecules and prevent dissociation of the MHC complexes.

Q: Which “Peptide exchange (MHC class I binding score, peptide exchange yield)” value (“Peptide exchange” for short) does the source give for “156 (FEVESLFQKY; listed as Homo sapiens) [compound 156]” here?
A: “+++” (>50 = +++)

Q: For “261 (NEIEHIPVW; listed as Homo sapiens) [compound 261]”, which “Peptide exchange” value is on record?
A: “+++” (>50 = +++)

Q: With “166 (NEVLASKY; listed as Homo sapiens) [compound 166]” as the substance, how does the “Peptide exchange” value read?
A: “+” (>10% = +)

Q: With “262 (QENQAETHAW; listed as Homo sapiens) [compound 262]” as the substance, how does the “Peptide exchange” value read?
A: “+++” (>50 = +++)

Q: How did the “Peptide exchange” value turn out when “264 (SEDHSGSYW; listed as Homo sapiens) [compound 264]” was run?
A: “+++” (>50 = +++)

Q: “265 (QEVDASIFKAW; listed as Homo sapiens) [compound 265]” was tested. Which “Peptide exchange” value did it give?
A: “+++” (>50 = +++)

Q: With “258 (EELFRDGVNW; listed as Homo sapiens) [compound 258]” as the substance, how does the “Peptide exchange” value read?
A: “+++” (>50 = +++)

Q: “155 (NEFPVIVRL; listed as Homo sapiens) [compound 155]” was tested. Which “Peptide exchange” value did it give?
A: “+++” (>50 = +++)

Q: “128 (GENDRLNHTY; listed as Homo sapiens) [compound 128]” was tested. Which “Peptide exchange” value did it give?
A: “++” (>20% = ++)

Q: For “168 (QEIQSLLTNW; listed as Homo sapiens) [compound 168]”, which “Peptide exchange” value is on record?
A: “+++” (>50 = +++)

Q: How did the “Peptide exchange” value turn out when “182 (AQNLSIIQY; listed as Homo sapiens) [compound 182]” was run?
A: “++” (>20% = ++)

Q: Which “Peptide exchange” value does the source give for “161 (EEGDTLLHLF; listed as Homo sapiens) [compound 161]” here?
A: “+++” (>50 = +++)

Q: “277 (EEGNLLRSW; listed as Homo sapiens) [compound 277]” was tested. Which “Peptide exchange” value did it give?
A: “+++” (>50 = +++)

Q: With “263 (REAGFQVKAY; listed as Homo sapiens) [compound 263]” as the substance, how does the “Peptide exchange” value read?
A: “+++” (>50 = +++)

Q: Which “Peptide exchange” value does the source give for “125 (SESTFDRTF; listed as Homo sapiens) [compound 125]” here?
A: “+++” (>50 = +++)

Q: “181 (GEIKEPLEI; listed as Homo sapiens) [compound 181]” was tested. Which “Peptide exchange” value did it give?
A: “++” (>20% = ++)

Q: For “269 (KELEDLNKW; listed as Homo sapiens) [compound 269]”, which “Peptide exchange” value is on record?
A: “+++” (>50 = +++)

Q: How did the “Peptide exchange” value turn out when “273 (AEIEIVKEEF; listed as Homo sapiens) [compound 273]” was run?
A: “++” (>20% = ++)

Q: For “160 (EEETILHFF; listed as Homo sapiens) [compound 160]”, which “Peptide exchange” value is on record?
A: “++” (>20% = ++)

Q: How did the “Peptide exchange” value turn out when “123 (EENPGKFLF; listed as Homo sapiens) [compound 123]” was run?
A: “+++” (>50 = +++)

Q: Which “Peptide exchange” value does the source give for “174 (TDKSFPNAY; listed as Homo sapiens) [compound 174]” here?
A: “+” (>10% = +)

Q: Which “Peptide exchange” value does the source give for “148 (REYNEYENI; listed as Homo sapiens) [compound 148]” here?
A: “++” (>20% = ++)

Q: For “153 (KEFEQVPGHL; listed as Homo sapiens) [compound 153]”, which “Peptide exchange” value is on record?
A: “++” (>20% = ++)

Q: With “149 (SEKETVAYF; listed as Homo sapiens) [compound 149]” as the substance, how does the “Peptide exchange” value read?
A: “+++” (>50 = +++)

Q: For “170 (SENEQRRMF; listed as Homo sapiens) [compound 170]”, which “Peptide exchange” value is on record?
A: “+++” (>50 = +++)

Q: Which “Peptide exchange” value does the source give for “271 (AESEDLAVHLY; listed as Homo sapiens) [compound 271]” here?
A: “++” (>20% = ++)

Q: Which “Peptide exchange” value does the source give for “163 (EEWMGLLEY; listed as Homo sapiens) [compound 163]” here?
A: “++++” (>75% = ++++)

Q: With “154 (AEPGPVITW; listed as Homo sapiens) [compound 154]” as the substance, how does the “Peptide exchange” value read?
A: “+++” (>50 = +++)

Q: With “147 (KEVPRSYEL; listed as Homo sapiens) [compound 147]” as the substance, how does the “Peptide exchange” value read?
A: “++” (>20% = ++)

Q: With “274 (GEAVTDHPDRLW; listed as Homo sapiens) [compound 274]” as the substance, how does the “Peptide exchange” value read?
A: “+++” (>50 = +++)

Q: How did the “Peptide exchange” value turn out when “129 (GEGAYGKVF; listed as Homo sapiens) [compound 129]” was run?
A: “++++” (>75% = ++++)

Q: How did the “Peptide exchange” value turn out when “145 (AEPLVGQRW; listed as Homo sapiens) [compound 145]” was run?
A: “+++” (>50 = +++)

Q: Which “Peptide exchange” value does the source give for “151 (EVDASIFKAW; listed as Homo sapiens) [compound 151]” here?
A: “++” (>20% = ++)

Q: For “186 (NEQKIVRF; listed as Homo sapiens) [compound 186]”, which “Peptide exchange” value is on record?
A: “+” (>10% = +)

Q: “179 (AEIKQTEEKY; listed as Homo sapiens) [compound 179]” was tested. Which “Peptide exchange” value did it give?
A: “++” (>20% = ++)

Q: How did the “Peptide exchange” value turn out when “172 (VEDGLFHEF; listed as Homo sapiens) [compound 172]” was run?
A: “+++” (>50 = +++)

Q: Which “Peptide exchange” value does the source give for “183 (GESQDSTTAL; listed as Homo sapiens) [compound 183]” here?
A: “++” (>20% = ++)

Q: How did the “Peptide exchange” value turn out when “143 (YEYDLKWEF; listed as Homo sapiens) [compound 143]” was run?
A: “+++” (>50 = +++)

Q: How did the “Peptide exchange” value turn out when “164 (SEYSHLTRV; listed as Homo sapiens) [compound 164]” was run?
A: “++” (>20% = ++)

Q: “137 (GELGGSVTI; listed as Homo sapiens) [compound 137]” was tested. Which “Peptide exchange” value did it give?
A: “+++” (>50 = +++)

Q: For “131 (EEFETIERF; listed as Homo sapiens) [compound 131]”, which “Peptide exchange” value is on record?
A: “++” (>20% = ++)

Q: Which “Peptide exchange” value does the source give for “176 (AENAVSNLSF; listed as Homo sapiens) [compound 176]” here?
A: “++” (>20% = ++)

Q: “142 (TEIFKEHNF; listed as Homo sapiens) [compound 142]” was tested. Which “Peptide exchange” value did it give?
A: “++” (>20% = ++)

Q: Which “Peptide exchange” value does the source give for “184 (RMPPFTQAF; listed as Homo sapiens) [compound 184]” here?
A: “++” (>20% = ++)

Q: For “124 (SESLPKEAF; listed as Homo sapiens) [compound 124]”, which “Peptide exchange” value is on record?
A: “++” (>20% = ++)

Q: With “187 (SDAQRPSSF; listed as Homo sapiens) [compound 187]” as the substance, how does the “Peptide exchange” value read?
A: “+” (>10% = +)

Q: How did the “Peptide exchange” value turn out when “175 (HEIDGKALFL; listed as Homo sapiens) [compound 175]” was run?
A: “++” (>20% = ++)

Q: Which “Peptide exchange” value does the source give for “173 (KEYDFGTQL; listed as Homo sapiens) [compound 173]” here?
A: “++” (>20% = ++)

Q: Which “Peptide exchange” value does the source give for “266 (VDASIFKAW; listed as Homo sapiens) [compound 266]” here?
A: “++” (>20% = ++)

Q: Which “Peptide exchange” value does the source give for “139 (RENQVLGSGW; listed as Homo sapiens) [compound 139]” here?
A: “+++” (>50 = +++)

Q: Which “Peptide exchange” value does the source give for “141 (REYEYDLKWEF; listed as Homo sapiens) [compound 141]” here?
A: “+++” (>50 = +++)

Q: Which “Peptide exchange” value does the source give for “144 (TEGKRYFTW; listed as Homo sapiens) [compound 144]” here?
A: “+++” (>50 = +++)

Q: Which “Peptide exchange” value does the source give for “146 (SESKTVVTY; listed as Homo sapiens) [compound 146]” here?
A: “+++” (>50 = +++)

Q: With “122 (KELPGVKKY; listed as Homo sapiens) [compound 122]” as the substance, how does the “Peptide exchange” value read?
A: “++” (>20% = ++)

Q: For “167 (KEIGAAVQAL; listed as Homo sapiens) [compound 167]”, which “Peptide exchange” value is on record?
A: “+++” (>50 = +++)

Q: How did the “Peptide exchange” value turn out when “276 (EEEGNLLRSW; listed as Homo sapiens) [compound 276]” was run?
A: “+++” (>50 = +++)
